Test results: article PMC10786891, “Massively parallel profiling of RNA-targeting CRISPR-Cas13d”
Where a chain is given by its changes, count along the chain named. Names and notes keep the numbering of the source.

T1: EsCas13d, nuclease-dead (Eubacterium siraeum, UniProt B0MS50, R295A;H300A;R849A;H854A)
T1 sequence: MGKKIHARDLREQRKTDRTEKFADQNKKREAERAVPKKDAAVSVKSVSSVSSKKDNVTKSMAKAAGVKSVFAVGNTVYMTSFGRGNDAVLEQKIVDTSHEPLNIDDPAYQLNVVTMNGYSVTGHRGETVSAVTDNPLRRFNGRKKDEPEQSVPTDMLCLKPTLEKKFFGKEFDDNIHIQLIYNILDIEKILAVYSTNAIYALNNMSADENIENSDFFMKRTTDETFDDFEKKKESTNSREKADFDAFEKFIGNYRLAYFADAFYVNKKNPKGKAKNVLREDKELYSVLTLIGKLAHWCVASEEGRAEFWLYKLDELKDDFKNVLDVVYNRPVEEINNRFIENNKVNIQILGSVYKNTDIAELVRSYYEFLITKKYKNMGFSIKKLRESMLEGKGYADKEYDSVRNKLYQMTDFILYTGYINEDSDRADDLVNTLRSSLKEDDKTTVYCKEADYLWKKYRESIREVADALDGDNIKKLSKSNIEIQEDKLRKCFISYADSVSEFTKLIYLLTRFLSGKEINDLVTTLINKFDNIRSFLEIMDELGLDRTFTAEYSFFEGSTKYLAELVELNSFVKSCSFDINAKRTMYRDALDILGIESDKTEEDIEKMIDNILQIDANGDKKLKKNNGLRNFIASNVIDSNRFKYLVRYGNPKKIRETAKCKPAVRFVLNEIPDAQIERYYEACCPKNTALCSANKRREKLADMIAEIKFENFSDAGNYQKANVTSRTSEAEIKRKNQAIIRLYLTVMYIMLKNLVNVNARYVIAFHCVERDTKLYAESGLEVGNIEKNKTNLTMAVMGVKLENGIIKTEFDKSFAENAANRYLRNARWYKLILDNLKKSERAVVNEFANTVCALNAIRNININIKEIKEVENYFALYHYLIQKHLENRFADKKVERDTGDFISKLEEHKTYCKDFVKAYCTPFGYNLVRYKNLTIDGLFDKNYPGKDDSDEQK

B1: target 1 insC 3' of 13,insA 3' of 13 (mixed)
RNA 1: CACCCGUGCAAAAAUGCAGGGGUCUAAAACUGAGCGGAUAACCUCUCUAUGG
RNA 2: GGGAAUGGAUCCACAUCUACGAAUUCGUACCAUAGAGAGCAGUUAUCCGCUCACCGAGAUCGGAAGAGCACACGU
B2: target 3 C1U,U7G (mixed)
RNA 1: CACCCGUGCAAAAUUGCAGGGGUCUAAAACGACCUGAAUAUUUCAGAUCAAA
RNA 2: GGGAAUGGAUCCACAUCUACGAAUUCGUUUUUGAUCUGAAAUAUGCAGGUUUGCAGAUCGGAAGAGCACACGU
B3: target 3 C6U,C16U (mixed)
RNA 1: B2 RNA 1
RNA 2: B2 RNA 2 with C36U, G45U, C46U, U51C
B4: target 3 insA 3' of 7,insC 3' of 3 (mixed)
RNA 1: B2 RNA 1
RNA 2: GGGAAUGGAUCCACAUCUACGAAUUCGUUUUUGAUCUGAAAUAUUACAGGCUCUGCAGAUCGGAAGAGCACACGU
B5: target 3 complement block 1-7 (mixed)
RNA 1: B2 RNA 1
RNA 2: B2 RNA 2 with G45A, C46G, A47U, G48C, G49C, U50A, U51G
B6: target 3 insC 3' of 4,insA 3' of 4 (mixed)
RNA 1: B2 RNA 1
RNA 2: B4 RNA 2 with A46C, C47A, A48G, G49C, G50A, C51G
B7: target 3 insC 3' of 5,insU 3' of 3 (mixed)
RNA 1: B2 RNA 1
RNA 2: B4 RNA 2 with A46C, C47A, A48C, C51U
B8: target 3 insU 3' of 16,insG 3' of 1 (mixed)
RNA 1: B2 RNA 1
RNA 2: B4 RNA 2 with G38U, A39G, U42A, A43U, U44A, A46U, C51U, U52C, C53G
B9: target 3 insA 3' of 10 (mixed)
RNA 1: B2 RNA 1
RNA 2: GGGAAUGGAUCCACAUCUACGAAUUCGUUUUUGAUCUGAAAUAAUUCAGGUCUGCAGAUCGGAAGAGCACACGU
B10: target 3 insC 3' of 22,insU 3' of 4 (mixed)
RNA 1: B2 RNA 1
RNA 2: GGGAAUGGAUCCACAUCUACGAAUUCGUUUCUUGAUCUGAAAUAUUCAGUGUCUGCAGAUCGGAAGAGCACACGU
B11: target 3 insU 3' of 22,insA 3' of 4 (mixed)
RNA 1: B2 RNA 1
RNA 2: B10 RNA 2 with C31U, U50A
B12: target 1 insC 3' of 8,insA 3' of 8 (mixed)
RNA 1: B1 RNA 1
RNA 2: B1 RNA 2 with C40G, A41U, G42U, U43A, A45C, U46A
B13: target 3 insA 3' of 4,insG 3' of 2 (mixed)
RNA 1: B2 RNA 1
RNA 2: B4 RNA 2 with A46C, C47A, A48G, G49A, C51U, U52G
B14: target 3 U7C,U22A (mixed)
RNA 1: B2 RNA 1
RNA 2: B2 RNA 2 with U30A, G45C, U51C
B15: target 3 A11C,U15C (mixed)
RNA 1: B2 RNA 1
RNA 2: B2 RNA 2 with U37C, A41C, G45U, U51C
B16: target 3 insU 3' of 22,insU 3' of 19 (mixed)
RNA 1: B2 RNA 1
RNA 2: GGGAAUGGAUCCACAUCUACGAAUUCGUUUUUUGUAUCUGAAAUAUUCAGGUCUGCAGAUCGGAAGAGCACACGU
B17: target 3 insA 3' of 21,insC 3' of 5 (mixed)
RNA 1: B2 RNA 1
RNA 2: B10 RNA 2 with C31U, U32A, G49C, U50G
B18: target 3 U2C,A11C (mixed)
RNA 1: B2 RNA 1
RNA 2: B2 RNA 2 with A41C, G45U, U50C, U51C
B19: target 3 insA 3' of 7,insG 3' of 5 (mixed)
RNA 1: B2 RNA 1
RNA 2: B4 RNA 2 with C51G
B20: target 3 insA 3' of 21,insA 3' of 21 (mixed)
RNA 1: B2 RNA 1
RNA 2: B16 RNA 2 with U32A, U33A, G34U, U35G
B21: target 3 insG 3' of 9,insA 3' of 4 (mixed)
RNA 1: B2 RNA 1
RNA 2: B4 RNA 2 with U44G, A46U, G50A, C51G
B22: target 3 insG 3' of 1,insG 3' of 1 (mixed)
RNA 1: B2 RNA 1
RNA 2: B4 RNA 2 with A46C, C47A, A48G, G50U, U52G, C53G
B23: target 1 U8C,C22A (mixed)
RNA 1: B1 RNA 1
RNA 2: GGGAAUGGAUCCACAUCUACGAAUUCGUAACAUAGAGAGGUUACCCGCUCACCGAGAUCGGAAGAGCACACGU
B24: target 3 insU 3' of 6,insU 3' of 5 (mixed)
RNA 1: B2 RNA 1
RNA 2: B4 RNA 2 with A46C, C47U, G49U, C51G
B25: target 3 G3A,U8G (mixed)
RNA 1: B2 RNA 1
RNA 2: B2 RNA 2 with U44G, G45U, G49A, U51C
B26: target 3 U7C,U8A (mixed)
RNA 1: B2 RNA 1
RNA 2: B2 RNA 2 with U44A, G45C, U51C
B27: target 3 complement block 1-3 (mixed)
RNA 1: B2 RNA 1
RNA 2: B2 RNA 2 with G45U, G49C, U50A, U51G
B28: target 3 U2A,G3C (mixed)
RNA 1: B2 RNA 1
RNA 2: B2 RNA 2 with G45U, G49C, U50A, U51C
B29: target 3 complement block 13-15 (mixed)
RNA 1: B2 RNA 1
RNA 2: B2 RNA 2 with U37A, G38C, A39U, G45U, U51C
B30: target 3 U7A,U8A (mixed)
RNA 1: B2 RNA 1
RNA 2: B2 RNA 2 with U44A, G45A, U51C
B31: target 3 del2,del19 (mixed)
RNA 1: B2 RNA 1
RNA 2: GGGAAUGGAUCCACAUCUACGAAUUCGUUUUUAUCUGAAAUAUUCAGGCUGCAGAUCGGAAGAGCACACGU
B32: target 3 insU 3' of 22 (mixed)
RNA 1: B2 RNA 1
RNA 2: B9 RNA 2 with G33U, A34G, U35A, C36U, U37C, G38U, A39G, U42A, A43U
B33: target 3 C1U,U22G (mixed)
RNA 1: B2 RNA 1
RNA 2: B2 RNA 2 with U30G, G45U

Biological target: T1, EsCas13d, nuclease-dead
Experiment: crRNA (strand 1, pre-loaded); Mg2+; 40 mM Tris-HCl pH 7.5, 150 mM NaCl, 6 mM MgCl2, 1 mM DTT, 0.1% Tween-20, 0.2 mg/ml BSA; 25 C; 10 min per concentration, then washed
Details: tags: His6-TwinStrep-SUMO cleaved; N-terminal SNAP kept (SNAP-Surface 488); label: 3' end held by stalled T7 RNA polymerase

| Binder | Kd |
| --- | --- |
| B1 | 17.2 ± 1.6 nM |
| B2 | ~40 nM |
| B3 | 84.5 ± 20 nM |
| B4 | 26.1 ± 2.35 nM |
| B5 | 57 ± 8.5 nM |
| B6 | 21.8 ± 2.15 nM |
| B7 | 7.75 ± 0.6 nM |
| B8 | 45.5 ± 11.5 nM |
| B9 | 55.5 ± 13 nM |
| B10 | 8.75 ± 2.3 nM |
| B11 | 69.5 ± 15.5 nM |
| B12 | 9.9 ± 0.5 nM |
| B13 | 49 ± 7 nM |
| B14 | 88.5 ± 21.5 nM |
| B15 | 50 ± 9 nM |
| B16 | 54 ± 14.5 nM |
| B17 | 69.5 ± 11.5 nM |

| Binder | Kd |
| --- | --- |
| B18 | 54.5 ± 7.7 nM |
| B19 | 42 ± 6.5 nM |
| B20 | 29.8 ± 4.05 nM |
| B21 | 60 ± 26.5 nM |
| B22 | 85 ± 31.5 nM |
| B23 | 21.9 ± 2.2 nM |
| B24 | 7.93 ± 0.61 nM |
| B25 | 108 ± 33.5 nM |
| B26 | 114 ± 28 nM |
| B27 | 23.1 ± 3.9 nM |
| B28 | 23.2 ± 2 nM |
| B29 | 67.8 ± 31.8 nM |
| B30 | 83 ± 15.5 nM |
| B31 | 98.5 ± 25 nM |
| B32 | 17.4 ± 1.8 nM |
| B33 | 77.5 ± 21 nM |
